In paper PMC12325741 (2025):
Where two headings read alike, the source gives them in different places.

Assays:
Test in all cases: SPR
[1] = molecular target: T1, CK19 (ligand protein of the Biacore assay) (UniProt P08727 1-400)
T1 chain: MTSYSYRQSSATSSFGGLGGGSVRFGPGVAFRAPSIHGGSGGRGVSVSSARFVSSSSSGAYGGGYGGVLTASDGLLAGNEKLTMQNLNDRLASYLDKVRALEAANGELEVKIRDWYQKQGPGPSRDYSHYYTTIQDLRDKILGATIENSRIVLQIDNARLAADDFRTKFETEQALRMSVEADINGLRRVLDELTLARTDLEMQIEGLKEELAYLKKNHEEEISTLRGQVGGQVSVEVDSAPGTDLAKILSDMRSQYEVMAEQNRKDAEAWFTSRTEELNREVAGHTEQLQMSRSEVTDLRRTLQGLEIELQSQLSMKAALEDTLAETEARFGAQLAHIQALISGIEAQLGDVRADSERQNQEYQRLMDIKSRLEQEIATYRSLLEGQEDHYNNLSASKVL

[2] = molecular target: T1, CK19 (ligand protein of the Biacore …)
[3] = molecular target: T1, CK19 (ligand protein of the Biacore …)
[4] = molecular target: T1, CK19 (ligand protein of the Biacore …)

Binder	koff [1] [s⁻¹]	Kd [2] [nM]	Kd [3] [nM]	koff [4] [s⁻¹]
NICD2-His (domain or fragment) VIMAKRKRKHGSLWLPEGFTLRRDASNHKRREPVGQDAVGLKNLSVQVSEANLIGTGTSEHWVDDEGPQPKKVKAEDEALLSEEDDPIDRRPWTQQHLEAADIRRTPSLALTPPQAEQEVDVLDVNVRGPDGCTPLMLASLRGGSSDLSDEDEDAEDSSANIITDLVYQGASLQAQTDRTGEMALHLAARYSRADAAKRLLDAGADANAQDNMGRCPLHAAVAADAQGVFQILIRNRVTDLDARMNDGTTPLILAARLAVEGMVAELINCQADVNAVDDHGKSALHWAAAVNNVEATLLLLKNGANRDMQDNKEETPLFLAAREGSYEAAKILLDHFANRDITDHMDRLPRDVARDRMHHDIVRLLDEYNVTPSPPGTVLTSALSPVICGPNRSFLSLKHTPMGKKSRRPSAKSTMPTSLPNLAKEAKDAKGSRRKKSLSEKVQLSESSVTLSPVDSLESPHTYVSDTTSSPMITSPGILQASPNPMLATAAPPAPVHAQHALSFSNLHEMQPLAHGASTVLPSVSQLLSHHHIVSPGSGSAGSLSRLHPVPVPADWMNRMEVNETQYNEMFGMVLAPAEGTHPGIAPQSRPPEGKHITTPREPLPPIVTFQLIPKGSIAQPAGAPQPQSTCPPAVAGPLPTMYQIPEMARLPSVAFPTAMMPQQDGQVAQTILPAYHPFPASVGKYPTPPSQHSYASSNAAERTPSHSGHLQGEHPYLTPSPESPDQWSSSSPHSASDWSDVTTSPTPGGAGGGQRGPGTHMSEPPHNNMQVYA	0.0854	635	–	–
MANF (analyte of the Biacore assay) (natural protein) LRPGDCEVCISYLGRFYQDLKDRDVTFSPATIENELIKFCREARGKENRLCYYIGATDDAATKIINEVSKPLAHHIPVEKICEKLKKKDSQICELKYDKQIDLSTVDLKKLRVKELKKILDDWGETCKGCAEKSDYIRKINELMPKYAPKAASARTDL	–	–	214	0.0117
